Measured values taken from the supplement of paper PMC9170038.

System: K4 kissing-loop RNA reporter
Assay: apparent KD of K4 kissing-loop reporter; higher = weaker reporter binding
Settings: Eterna round: R107
Method: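 RNA-MaP round R107: designed RNA switches with theophylline, tryptophan, arginine or FMN aptamers are transcribed on-chip within common flanks. They are titrated with a labelled K4 kissing-loop RNA reporter in RNA-MaP buffer (100 mM Tris pH 7.5, 80 mM KCl, 4 mM MgCl2), without ligand or with the indicated ligand. Median apparent KD per design.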

[1] = input ligand: theophylline 20 uM
[2] = input ligand: tryptophan 2.4 mM
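Note: bound reporter read as fluorescence of individual clusters on recovered sequencing chips by microscopy, with normalized cluster intensities fitted with a binding model.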

Sequence	apparent KD of K4 kissing-loop reporter (input ligand: FMN 200 uM) [nM]	apparent KD of K4 kissing-loop reporter (input ligand: arginine 13.2 mM) [nM]	apparent KD of K4 kissing-loop reporter (input ligand: none) [nM]	apparent KD of K4 kissing-loop reporter [1] [nM]	apparent KD of K4 kissing-loop reporter [2] [nM]
AAGCAGUCACUCGAAGCCAUCGAAGAUGGGCGAGGACCGGUACGGCCGCCACUCGGAGUGAUGUUCCGAGGACUGCAAAAUAAAA [MatMod 4 - Jieux - Exclusion - Tryptophan A]	507	365	350	299	311
UGUCAUUGGUCUGAUACCAGAAGAUAAUCUGGAGUGAUGUUCCAAGUACGACAAAGUCGCUUCCCUUGGCAGCAGACCGAUGACU [TheoBS 19 #SwitchBubble 13 #StaticStem]	1040	759	1110	619	886
AUACAGCGAAGCGCUAGUGAUGUUAGCGAAGGAGCGACUCAGGAGUCAGGUAGGUCGCGCUAAACAGGUUACGAGAGUAACCAGU [Arg A Ex t1]	142	120	140	137	113
GCGCGGCACAGUGAUGUUGUGCCUCGGAGACGAGGACCGGUACGGCCGCCACUCGUCCGCGCAGCUGAGGCAAAAGCCUCGGCAA [Omei KL Tryp A SS B v4]	382	393	473	447	128
UGACUACAUAAGGAUUAAUCCUAGUGAUGUUAGGAUAUGCUGAUAAGCAGAAGGAACGGAGAUCGAAGGAUCUCAUAUGUAGUCU [whbob_Ex_FMNA__2th195]	457	135	164	138	164
GGGAGCAAAGCUCCCGGAUGCUAUUACCAGUAGGAUAUCUGGAAACAGAGAAGGGCUAAGCCAGUGAUGUUGGUUUCGAGCAUCC	596	575	754	575	514
UUUUUUUACUGAAGGAGCGGCAAUUGAUACGUAGAUAUAGUGAUGUUAUAUAAGAUAGAGAGCCAGGUAGGUCGCAGAUUUUUUC [ExArgB.X]	194	160	172	143	129
AAGUUAUGAUCUGAUACCAGACUUUAUCUUGUUUAUAAGUCAAGUGAUGUUUGACUAUUAGUCCCUUGGCAGCAGUAUUGUUUAA [#18 K4 Theophylline B Same State]	263	268	302	228	255
UUGUUUGGUUGAGAGGUUGGGCGAGAUGAUACCAGUAGAUAAGAAUACCCUUGGCAGCAUAAGAAAGAUAUAGUGAUGUUGUAUA [SSTheophA.N]	566	386	553	525	478
GGUAGCAUGGCGGCCGCCACUCUAUGCGAGUGAUGUUCGCAGCUCAAAGAGCACCCGGGAACAGAGAGGACCGGGCCAUGCUACC	294	228	261	302	213
UAAUGUGGCACAGGAUAUACUGAUUGGAGUGAUGUUCCAAACAUGAACAAGAGACUUUUACAAGAAGUAGAAGGGUGUUAGAUAU [Exclusion FMN B GF 19]	269	265	223	295	223
AAAAUAAAGGAGUGAUGUUCCAUAACGGAUACCAGCCACGAAAGUGGCCCUUGGCAGCUGUGCCAGUGGACGAAUAACGUCCACA [#OpenEnded 6 #StaticStem #K4Early]	164	287	237	280	164
AAGAAGAAUGGAAGGAGCGAGCAGAAAUAACCAGUGAUGUUGGAAAGCCUUAUUGCUUAAGCUCAGGUAGGUCGCCAAGAAAAGA [Mostly trial and error]	158	181	205	226	171
GGUAGCAUGGCGGCCGCCACUUCAAAUGGAGUGAUGUUCCAAGGCAUCGCGAAAGCGAUGCCAGGAAGGACCGGGCCAUGCUACC	831	859	522	566	143
UGACUGGAUGGAAGGAGCGCUAAACUCCUAGUGAUGUUAGGGACAUGAGGCAUAGCCUUGAAGCAGGUAGGUCGCCAUCUAGUCU [FiskerMod 29 - Jieux - Same State - Arginine B]	193	132	184	189	144
AAUAUAUAGUGAAGGAGCGCGAUAAGCAGUGAUGUUGCUUAGUUAUUAGUGUUUAUUUUUACGCAGGUAGGUCGCACUAUAUAUA [JR_ExcArginiB_Sub017]	115	105	114	101	114
GCUCAGGAGUGAUGUUCCAAGUGGUGUUAACGAGGACCGGUACGGCCGCCACUCGAUACGGCCGGACCGUAGGAUAAACUAGAGC [Same State - Tryptophan A (Freestyle 11)]	233	175	196	280	206
UAACUCUUGCAGUGAUGUUGCAAGUAUGCUCAGGAUAUCAGGAAACUGAGAAGGGAGUUUCCUGAGCUUCUGCAAGAGCUCAGAA [KL-SSFMN-A6]	618	408	547	375	382
GGGAGAAGAGCGGCCGCCACUCAGAAAGAAGAAGAAUAUAGUGAUGUUAUAUAGGAAAGGAAGAAGAGGACCGGGCUUAAGAGGG [#18 K4 Tryptophan B Same State]	144	132	149	177	171
CCAGGAUGAUGAGGAUGAUAAAUUACUGAAGGAGCGCAUAUAGUUGCAGGUAGGUCGCGGUGAAUAAGUAUAGUGAUGUUAUACC [SSArgA.Aa]	379	263	309	360	301
UGUCAUUGGUCGGAUACCAGUUGAUGACGAAUACGUCAACUGGAGUGAUGUUCCUAAAACAACCCUUGGCAGCCGACCGAUGACU [MAT - Same State Theophlline B - Mod of Eli - D1]	937	641	852	666	761
GACAACAGGGUGAGACUCACGGCGCCAGAAGGAGCGGUGAUUCCACCAGGUAGGUCGCUGGCCCAGUGAUGUUGGGCUUUGUGUC [Onoran]	129	120	138	133	123

Sequence	apparent KD of K4 kissing-loop reporter (input ligand: FMN 200 uM) [nM]	apparent KD of K4 kissing-loop reporter (input ligand: arginine 13.2 mM) [nM]	apparent KD of K4 kissing-loop reporter (input ligand: none) [nM]	apparent KD of K4 kissing-loop reporter [1] [nM]	apparent KD of K4 kissing-loop reporter [2] [nM]
UGAUACCAGACUGAUACCAGCUAGUGAUGUUAGCUGAUAAACAAACAGGCAAAGCCUGCUAGCCCUUGGCAGCAGUCUGGUAUCU [TheoBX 12 #SwitchBubble #StaticStem]	206	180	193	359	202
AGGAUCCGUCGACAAAAGUCGACAUAAGCCAAGGAUAUGACGAAAGUCAGAAGGUGGUCAUAAGACCAGUGAUGUUGGUGGAUCC [FmnA 13 #SwitchBubble #K4Late]	909	279	526	309	457
AGACUACCACACUGUCAAUAGACAGUGAGCUAGGAUAUGCUGAUAAGCAGAAGGAGUGAUGUUCCUCGGUAGUCAAUAAAAUAAU [FmnAX 13 G29+C67]	373	357	364	503	378
AAACGUUGGUGCGAUACCAGCUGGUCGGAAACGACCUUGCUGGAGUGAUGUUCCAAGUAAAGCCCUUGGCAGCGCACCGACGAAA [MAT - Same State Theophlline B - Mod of Eli - D23]	122	53.6	43.2	135	93.9
ACAAUGAUCAAAGGAUAUCGUAAGUUAUACAUCACGCGAUGAUUCAGAGGCGAGUGAUGUUUGUCUCGAGAAGGUUGGUACCGUC [theeternabot_exclusion_KL_FMN_B_37]	366	539	521	599	568
CGCAAUAUUACGGAGUGAUGUUUCGUAGUCCGAGGACCGGUACGGCCGCCACUCGCUGGCGUUGGCCCAUAGACCGACGGAAUCG [theeternabot_sameState_KL_Trp_A_39]	246	252	257	236	238
AAUAUCUAGUAUAUUUUUAAUAAAACAGAUACCAGUGAUAAUAGACACCCUUGGCAGCUGGUCGAGUGAUGUUCGUUUAUAUUAA [JR_SSTheophyA_Sub006]	85.5	83.6	104	176	57.3
UGUGAGCUGUCGACAAAAGUCGACUAAAACUAGGAUAUGACGAAAGUCAGAAGGAGUCAAUAAUGGAGUGAUGUUCCUGCUCACU [FmnA 9 U31+A55]	277	367	414	386	331
ACGUCACGUAAACUCGUGGUUUCGAUCGAUACCAGUAGCGAGAGUUACCCUUGGCAGCGACAUGAGUGAUGUUCAUGUACGAAGA [KL-XTheoA1]	101	89.1	97	102	91.7
ACAAAAGUGAUGUUUUUGAACGUGCGCGAUACCAGAAAUGUCUUCUUCCCUUGGCAGCGCUAUUACUUGUAAGAAAGUACGUUUC [theeternabot_sameState_KL_Theo_A_17]	969	528	870	774	490
GGGCAUCAGGCUGAUACCAGUGAUAAAGGAUAAGAGACAGGGAGUGAUGUUCCCUUUACCCACCCUUGGCAGCAGUUUAAGUUUG [Exclusion Theophylline B GF 16]	92.8	94.9	111	94.3	87.1
AAAUUUAUAUUAGAUACCAGUUUAAUGGAUGUAAAUUAUGACAUGAGUGAUGUUCAUGUAAGCCCUUGGCAGCUGGUAUGGGUUU [KL-XTheo-B21]	127	110	121	116	115
AACCUACGAUCACAAUAGUGAUUGUAGGACUAGGAUAUGCUGAAAAGCAGAAGGAGUGAUGUUCCGUCAUGAAUAACAUGACAAA [FmnAX 3 #OpenEnded #K4Late #CoaxialStacking]	610	465	455	497	357
ACUUGAGCACAUAGCACACCAAGCAGUAGGUAGGAUAUCCGGCUUAGGAGAAGGACCAUGCAGUGAUGUUGCAUGCUCCUCCAUG [Zaribies]	258	95.8	76	92.3	99.9
UGUGAUGUGUAGUGUAAUGUUUUGCGGGAUACCAGAGUCUUUUUAUUCCCUUGGCAGCUUGAGUGAUGUUUGAUGCUGUUCUUGU [llmdmullin]	519	351	479	439	326
UGGUUUAGAAGUGAUGUUUCGAUAAGUGAUACCAGACAAAAGAAAGUCCCUUGGCAGCACAAUGAUGCCAAGGAAACGGCAUGAU [Same State Theophylline A GF 1]	118	146	115	127	98.9
AGAAAAGGGACGAUCGUCGAGUUGCCAGAAGGAGCGGUAAUUUUACCAGGUAGGUCGCUGGCCCAGUGAUGUUGGGCUUUUAAGA [Biisinaor]	105	96.5	125	133	92.4
GCAUCCUAUGCAGGAUAUUAGCAUUUGAGUGAUGUUCAGACUAGCGAAAGCUAGUCAAUUGCUGGUUAAGAAGGGCAUAGGAUGC	891	750	971	902	689
UUUUAAAUAUCUGAUACCAGAGCGAAUAUAUGUAGUGAUGUUAUAUACAAAAUAAAUAAGCUCCCUUGGCAGCAGUAUUAAUUUU [Astros-ExyTheB#?#ED14.66]	1020	829	919	961	968
AAAAUAAGCCAGUGAUGUUGGUAUGCAGAUACCAGCGACGAAAGUCGCCCUUGGCAGCUGUGGACGUACAAAAUAAGUACGUCCU	253	109	329	331	179
UCCUGCAAUCUGCCACGAAAGUGGAUUGAUACCAGAGUCGAAAGACUCCCUUGGCAGCGAGUGAUGUUCGAAGCAGGUAAAUAAA	99.4	149	124	160	91.7
